Laboratory results: patent publication US20190055293

Tested on: insulin

Row | Substance | insulin disulfide reductase activity (turbidity, optical density at A595 nm)
1 | purified RdCVF(LF) protein (human rod-derived cone viability factor, long form) | The addition of RdCVF (LF) or Trx1 resulted in an increase in optical density at A595 nm
2 | Thioredoxin protein | The addition of RdCVF (LF) or Trx1 resulted in an increase in optical density at A595 nm
